# Test results from publication doi:10.1101/2024.06.06.597810 (bioRxiv, 2024).
# T1: SARS-CoV-2 spike stem helix peptide (residues 1146-1159), displayed on yeast (SARS-CoV-2)
# T1 chain: DSFKEELDKYFKNH
# B1: S2P6 VH E1Q/VL E105D in scFv format (scFv, V domains shown)
# VH: QVQLVQSGAEVKKPGASVKVSCKASGYTFTSQYMHWVRQAPGQGLEWIGIINPSGVHTSYAQKFQGRVTLTRDTSTSTLYMELSSLRSEDTAVYYCARGSPKGAFDYWGQGTLVTVSS
# VL: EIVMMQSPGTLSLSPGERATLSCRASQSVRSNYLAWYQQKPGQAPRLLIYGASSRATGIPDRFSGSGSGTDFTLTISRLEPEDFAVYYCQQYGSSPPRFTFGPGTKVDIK
# notes: not shown: HA, C-terminal, kept
# Biological target: T1, SARS-CoV-2 spike stem helix peptide …
# Assay: flow cytometry on cells
# Details: partners not purified
binder,measurement,value
B1,binding result,binds
